Data on one molecule can be found in patent US20160168251A1 (MorphoSys, published 2016).

The target in assay [1] is T1, human NPRA on HEK293 cells bound to ANP (human, UniProt P01160 124-151).
T1 sequence: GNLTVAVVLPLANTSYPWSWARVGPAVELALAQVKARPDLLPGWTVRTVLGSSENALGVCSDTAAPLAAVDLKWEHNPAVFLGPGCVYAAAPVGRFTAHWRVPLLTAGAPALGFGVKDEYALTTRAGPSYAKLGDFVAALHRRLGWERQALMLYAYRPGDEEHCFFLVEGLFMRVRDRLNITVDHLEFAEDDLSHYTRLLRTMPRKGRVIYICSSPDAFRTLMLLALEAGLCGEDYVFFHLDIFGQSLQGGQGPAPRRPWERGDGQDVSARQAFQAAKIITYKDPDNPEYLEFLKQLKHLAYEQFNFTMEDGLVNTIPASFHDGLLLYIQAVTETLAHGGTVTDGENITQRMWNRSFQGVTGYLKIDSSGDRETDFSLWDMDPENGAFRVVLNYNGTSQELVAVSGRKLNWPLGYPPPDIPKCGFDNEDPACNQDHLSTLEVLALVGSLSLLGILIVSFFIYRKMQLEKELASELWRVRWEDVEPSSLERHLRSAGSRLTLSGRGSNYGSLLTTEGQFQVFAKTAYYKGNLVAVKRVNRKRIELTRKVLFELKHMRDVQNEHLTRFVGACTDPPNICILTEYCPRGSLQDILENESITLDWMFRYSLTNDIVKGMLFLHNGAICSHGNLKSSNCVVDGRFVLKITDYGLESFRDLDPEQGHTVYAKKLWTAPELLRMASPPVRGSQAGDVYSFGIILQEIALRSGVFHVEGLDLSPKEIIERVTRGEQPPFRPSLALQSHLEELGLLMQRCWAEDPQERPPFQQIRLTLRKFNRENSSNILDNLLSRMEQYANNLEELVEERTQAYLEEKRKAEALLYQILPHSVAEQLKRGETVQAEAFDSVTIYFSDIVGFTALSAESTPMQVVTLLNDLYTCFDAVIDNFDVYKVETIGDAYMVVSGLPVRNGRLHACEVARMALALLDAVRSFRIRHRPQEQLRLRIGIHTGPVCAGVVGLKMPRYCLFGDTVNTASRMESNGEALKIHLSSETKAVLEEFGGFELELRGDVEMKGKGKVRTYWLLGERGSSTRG
T1 sequence (peptide): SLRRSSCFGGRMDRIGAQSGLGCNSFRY
The assay can be described thus: cell-based or functional assay.

Assay [2] addresses T2, human NPRA on HEK293 cells bound to BNP (human, UniProt P16860 103-134).
T2 sequence: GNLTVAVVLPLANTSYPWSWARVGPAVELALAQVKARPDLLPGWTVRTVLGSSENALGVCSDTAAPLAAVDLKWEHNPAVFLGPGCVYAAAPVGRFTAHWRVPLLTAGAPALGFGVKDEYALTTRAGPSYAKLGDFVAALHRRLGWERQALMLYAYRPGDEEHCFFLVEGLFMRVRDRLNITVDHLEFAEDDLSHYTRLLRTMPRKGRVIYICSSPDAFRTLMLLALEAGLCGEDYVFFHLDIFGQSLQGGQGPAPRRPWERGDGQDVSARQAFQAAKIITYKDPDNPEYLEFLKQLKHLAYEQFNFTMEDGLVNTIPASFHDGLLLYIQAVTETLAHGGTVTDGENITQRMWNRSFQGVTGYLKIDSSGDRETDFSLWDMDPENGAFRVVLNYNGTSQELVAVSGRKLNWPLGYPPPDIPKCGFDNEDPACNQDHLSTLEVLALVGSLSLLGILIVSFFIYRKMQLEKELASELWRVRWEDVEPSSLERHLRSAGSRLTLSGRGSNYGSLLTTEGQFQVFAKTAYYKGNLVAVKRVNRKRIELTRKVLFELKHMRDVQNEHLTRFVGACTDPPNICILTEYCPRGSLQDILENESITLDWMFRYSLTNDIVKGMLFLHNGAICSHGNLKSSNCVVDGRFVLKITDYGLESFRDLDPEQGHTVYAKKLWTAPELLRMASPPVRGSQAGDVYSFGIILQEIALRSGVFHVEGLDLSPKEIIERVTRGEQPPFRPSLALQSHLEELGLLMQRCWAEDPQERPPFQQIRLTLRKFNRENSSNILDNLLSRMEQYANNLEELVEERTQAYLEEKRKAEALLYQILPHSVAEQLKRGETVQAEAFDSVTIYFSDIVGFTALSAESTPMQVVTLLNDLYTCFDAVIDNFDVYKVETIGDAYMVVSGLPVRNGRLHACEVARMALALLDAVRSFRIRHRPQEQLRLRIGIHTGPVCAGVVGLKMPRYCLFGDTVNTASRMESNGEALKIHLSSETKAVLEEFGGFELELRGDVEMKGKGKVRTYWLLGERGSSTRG
T2 sequence (peptide): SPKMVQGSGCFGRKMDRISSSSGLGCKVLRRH
Briefly: cell-based or functional assay.

Assay [3] concerns the target T1, human NPRA on HEK293 cells bound to ANP. Briefly: FACS, HEK NPRA cells with ANP. On the technique in general: In flow cytometry, cells or beads pass a laser one at a time.
For assay [4], the target named is T3, human NPRA on HEK293 cells, without added ligand (human, UniProt P16066 33-1061).
T3 construct: a signal peptide is not delimited; also called HEK NPRA cells; HEK hNPRA cells
T3 sequence: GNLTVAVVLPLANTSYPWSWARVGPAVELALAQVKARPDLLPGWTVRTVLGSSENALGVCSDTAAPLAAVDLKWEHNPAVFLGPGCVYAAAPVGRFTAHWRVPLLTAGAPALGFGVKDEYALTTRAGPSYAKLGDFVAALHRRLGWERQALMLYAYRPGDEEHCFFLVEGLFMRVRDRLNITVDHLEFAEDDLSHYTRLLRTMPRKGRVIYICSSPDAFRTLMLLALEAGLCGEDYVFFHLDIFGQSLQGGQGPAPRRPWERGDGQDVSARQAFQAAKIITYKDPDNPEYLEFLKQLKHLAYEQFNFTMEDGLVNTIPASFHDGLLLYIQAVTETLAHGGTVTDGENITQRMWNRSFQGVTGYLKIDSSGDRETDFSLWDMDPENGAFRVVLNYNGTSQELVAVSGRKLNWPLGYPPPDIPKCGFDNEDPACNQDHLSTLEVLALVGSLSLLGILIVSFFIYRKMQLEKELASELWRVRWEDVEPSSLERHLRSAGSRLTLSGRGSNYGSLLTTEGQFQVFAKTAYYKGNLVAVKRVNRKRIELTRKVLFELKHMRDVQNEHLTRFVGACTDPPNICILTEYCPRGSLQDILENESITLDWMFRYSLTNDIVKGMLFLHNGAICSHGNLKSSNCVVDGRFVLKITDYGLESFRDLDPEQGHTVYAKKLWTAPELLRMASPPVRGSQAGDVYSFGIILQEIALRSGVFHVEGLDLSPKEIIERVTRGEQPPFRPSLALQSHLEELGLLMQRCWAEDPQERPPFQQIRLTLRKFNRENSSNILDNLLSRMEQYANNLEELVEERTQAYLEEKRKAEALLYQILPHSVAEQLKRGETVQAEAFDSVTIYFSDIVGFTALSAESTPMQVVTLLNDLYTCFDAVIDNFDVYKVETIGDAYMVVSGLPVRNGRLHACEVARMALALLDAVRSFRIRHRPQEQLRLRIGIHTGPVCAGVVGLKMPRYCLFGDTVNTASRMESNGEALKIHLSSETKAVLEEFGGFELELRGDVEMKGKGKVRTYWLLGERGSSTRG
Briefly: FACS, HEK NPRA cells without ligand.

For assay [5], the target named is T1, human NPRA on HEK293 cells bound to ANP. The assay can be described thus: FACS titration on ANP bound HEK NPRA cells; ANP bound HEK NPRA cells.
The target of assay [6] is T2, human NPRA on HEK293 cells bound to BNP. Briefly: FACS titration on BNP bound HEK NPRA cells; BNP bound HEK NPRA cells.
In assay [7] the target is T4, atrial natriuretic peptide (ANP), free (UniProt P01160 124-151, 125I label in the radioligand assays of Example 10).
T4 construct: mature; also called free ANP
T4 peptide (looked up): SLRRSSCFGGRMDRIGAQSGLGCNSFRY
Briefly: FACS competition: Fab pre-incubated with free ANP, then HEK NPRA cells loaded with 100 nM ANP.

As a reminder, the EC50 (read off the curve) is the concentration giving half of the maximal effect. A word on the EC50: it is the concentration at which the effect is half-maximal. Higher therefore signals lower potency in that assay.

B1: 5064 Fab (Fab, V domains shown)
VH: QVQLQQSGPGLVKPSQTLSLTCAISGDSVSSRSASWSWIRQSPGRGLEWLGRIYYRSKWYNDYAVSVKSRITINPDTSKNQFSLQLNSVTPEDTAVYYCARMDVPSFRYFDVWGQGTLVTVSS
VL: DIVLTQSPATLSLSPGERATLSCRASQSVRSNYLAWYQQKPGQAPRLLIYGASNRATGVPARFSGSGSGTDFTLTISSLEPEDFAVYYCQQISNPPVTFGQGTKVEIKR
Take B1: the “EC50 of ANP, cGMP production in HEK NPRA cells, with 400 nM Fab” value in assay [1] is 1 nM. The “fold decrease of the EC50 of BNP (cGMP, 400 nM Fab)” value in assay [2] is 2 fold. Also, the “EC50 (read off the curve)” value in assay [3] was around 100 nM. For the same molecule, the results for the binding result in assay [4] and in assay [7] were “no binding (tested: 20 µg/ml)” and “no binding (tested: 10000 nM)”, respectively. Besides, the EC50 is at least 100 nM in assay [5] and at least 300 nM in assay [6].
